We go through 2 proteins from article PMC10755794.

Substrate in this series: O=C(O)C(=O)Cc1ccccc1
In words: purified protein. The settings on record: ThDP, Mg2+. It is filed as biochemical, Saccharomyces cerevisiae.

B1: Phenylpyruvate decarboxylase Aro10p (Aro10p^HJ) (Saccharomyces cerevisiae S288C; A377V/K527R) (protein)
chain: MAPVTIEKFVNQEERHLVSNRSATIPFGEYIFKRLLSIDTKSVFGVPGDFNLSLLEYLYSPSVESAGLRWVGTCNELNAAYAADGYSRYSNKIGCLITTYGVGELSALNGIAGSFAENVKVLHIVGVAKSIDSRSSNFSDRNLHHLVPQLHDSNFKGPNHKVYHDMVKDRVACSVAYLEDIETACDQVDNVIRDIYKYSKPGYIFVPADFADMSVTCDNLVNVPRISQQDCIVYPSENQLSDIINKITSWIYSSKTPAILGDVLTDRYGVSNFLNKLICKTGIWNFSTVMGKSVIDESNPTYMGQYNGKEGLKQVYEHFELCDLVLHFGVDINEINNGHYTFTYKPNAKIIQFHPNYIRLVDTRQGNEQMFKGINFVPILKELYKRIDVSKLSLQYDSNVTQYTNETMRLEDPTNGQSSIITQVHLQKTMPKFLNPGDVVVCETGSFQFSVRDFAFPSQLKYISQGFFLSIGMALPAALGVGIAMQDHSNAHINGGNVKEDYKPRLILFEGDGAAQMTIQELSTILRCNIPLEVIIWNNNGYTIERAIMGPTRSYNDVMSWKWTKLFEAFGDFDGKYTNSTLIQCPSKLALKLEELKNSNKRSGIELLEVKLGELDFPEQLKCMVEAAALKRNKK
What is called Km is the concentration of substrate that gives half-maximal velocity. In general, Vmax refers to the rate approached at saturating substrate. Usually kcat/Km stands for the turnover number divided by the Michaelis constant. As for B1, the Michaelis-Menten constant (Km) was determined as 86.36 ± 6.18 µM, the Vmax was 2.11 µmol/min/mg and the kcat/Km amounted to 595000 ± 33500 M⁻¹ s⁻¹.

B2: Phenylpyruvate decarboxylase Aro10p (Aro10p^S288C) (Saccharomyces cerevisiae S288C) (protein)
chain: MAPVTIEKFVNQEERHLVSNRSATIPFGEYIFKRLLSIDTKSVFGVPGDFNLSLLEYLYSPSVESAGLRWVGTCNELNAAYAADGYSRYSNKIGCLITTYGVGELSALNGIAGSFAENVKVLHIVGVAKSIDSRSSNFSDRNLHHLVPQLHDSNFKGPNHKVYHDMVKDRVACSVAYLEDIETACDQVDNVIRDIYKYSKPGYIFVPADFADMSVTCDNLVNVPRISQQDCIVYPSENQLSDIINKITSWIYSSKTPAILGDVLTDRYGVSNFLNKLICKTGIWNFSTVMGKSVIDESNPTYMGQYNGKEGLKQVYEHFELCDLVLHFGVDINEINNGHYTFTYKPNAKIIQFHPNYIRLVDTRQGNEQMFKGINFAPILKELYKRIDVSKLSLQYDSNVTQYTNETMRLEDPTNGQSSIITQVHLQKTMPKFLNPGDVVVCETGSFQFSVRDFAFPSQLKYISQGFFLSIGMALPAALGVGIAMQDHSNAHINGGNVKEDYKPRLILFEGDGAAQMTIQELSTILKCNIPLEVIIWNNNGYTIERAIMGPTRSYNDVMSWKWTKLFEAFGDFDGKYTNSTLIQCPSKLALKLEELKNSNKRSGIELLEVKLGELDFPEQLKCMVEAAALKRNKK
As for B2, the Michaelis constant (Km) came out at 102.24 ± 2.15 µM, the Vmax came to 2.26 µmol/min/mg and the specificity constant (kcat/Km) came to 597000 ± 20500 M⁻¹ s⁻¹.
